Measurements as given in IntAct's records for PubMed 11238466.

B1: CARD domain-containing protein E10 (Equine herpesvirus 2 (strain 86/87)), Q66677 (parent)
chain: MAEKYPLQAGDPCVTLTEEDIWDVERLCLEELRVLLVSHLKSHKHLDHLRAKKILSREDAEEVSSRATSRSRAGLLVDMCQDHPRGFQCLKESCKNEVGQEHLVDLLERAFEKHCGDKLTQKWWESGADGRNPRRPPGSEDNSGYTALLPTNPSGGGPSIGSGHSRPRGRDDSGGIGGGVYPFSHGGARVVGGGWGGWGESGGAGRGGSLLSGGHGGHPPHGGPGGGGRDYYGGGGSGYYESIPEPANFPNSGGGGRGGGVRYDAGGDGRLGGLPPDPQEVDDPSLSVQGRGGPAPDPPSPPLRTRRFFCC
partner: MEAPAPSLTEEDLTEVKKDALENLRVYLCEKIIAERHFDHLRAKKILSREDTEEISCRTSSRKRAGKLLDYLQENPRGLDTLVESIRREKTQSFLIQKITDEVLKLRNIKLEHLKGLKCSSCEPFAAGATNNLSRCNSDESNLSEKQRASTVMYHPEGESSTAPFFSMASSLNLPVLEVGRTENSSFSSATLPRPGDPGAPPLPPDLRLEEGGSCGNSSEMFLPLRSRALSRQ
B2: CARD domain-containing protein E10 (Equine herpesvirus 2 (strain 86/87)), Q66677 (parent)
chain: B1 chain
partner: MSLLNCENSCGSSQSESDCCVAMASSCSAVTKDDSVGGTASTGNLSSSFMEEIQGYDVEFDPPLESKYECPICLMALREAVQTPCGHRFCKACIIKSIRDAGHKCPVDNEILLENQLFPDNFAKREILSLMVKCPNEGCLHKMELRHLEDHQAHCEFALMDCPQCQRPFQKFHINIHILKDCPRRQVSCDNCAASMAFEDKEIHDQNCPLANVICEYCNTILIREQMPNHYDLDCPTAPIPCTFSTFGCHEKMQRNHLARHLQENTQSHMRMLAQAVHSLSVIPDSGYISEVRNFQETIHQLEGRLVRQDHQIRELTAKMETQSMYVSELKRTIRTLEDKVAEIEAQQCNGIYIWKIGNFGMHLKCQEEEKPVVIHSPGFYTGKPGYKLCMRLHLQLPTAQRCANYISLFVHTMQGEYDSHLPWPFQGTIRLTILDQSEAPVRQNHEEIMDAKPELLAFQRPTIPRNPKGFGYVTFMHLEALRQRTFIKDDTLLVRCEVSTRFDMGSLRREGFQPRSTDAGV

Variants of: B1
Details: with bcl10_mouse Bcl10, Q9Z0H7

Variant	effect of a mutation on the interaction
MAEKYPLQAGDPCVTLTEEDIWDVERLCLEELRVLLVSHLKSHKHLDHRRAKKILSREDAEEVSSRATSRSRAGLLVDMCQDHPRGFQCLKESCKNEVGQEHLVDLLERAFEKHCGDKLTQKWWESGADGRNPRRPPGSEDNSGYTALLPTNPSGGGPSIGSGHSRPRGRDDSGGIGGGVYPFSHGGARVVGGGWGGWGESGGAGRGGSLLSGGHGGHPPHGGPGGGGRDYYGGGGSGYYESIPEPANFPNSGGGGRGGGVRYDAGGDGRLGGLPPDPQEVDDPSLSVQGRGGPAPDPPSPPLRTRRFFCC [L49R]	decreasing interaction

Variants of: B2
Details: with traf6_human TRAF6, Q9Y4K3

Variant	effect of a mutation on the interaction
MAEKYPLQAGDPCVTLTEEDIWDVERLCLEELRVLLVSHLKSHKHLDHLRAKKILSREDAEEVSSRATSRSRAGLLVDMCQDHPRGFQCLKESCKNEVGQEHLVDLLERAFEKHCGDKLTQKWWESGADGRNPRRPPGSEDNSGYTALLPTNPSGGGPSIGSGHSRPRGRDDSGGIGGGVYPFSHGGARVVGGGWGGWGESGGAGRGGSLLSGGHGGHPPHGGPGGGGRDYYGGGGSGYYESIPEPANFPNSGGGGRGGGVRYDAGGDGRLGGLPPDGQAVDDPSLSVQGRGGPAPDPPSPPLRTRRFFCC [P278G;E280A]	decreasing interaction
